Measured values published in publication PMC7949139, “The molecular basis of OH-PCB estrogen receptor activation” (The Journal of Biological Chemistry, 2021).

What was measured:
Format in all cases: biochemical, human
[1] = substrate: Oc1ccc2ccc3cccc4ccc1c2c34; test: Initial-rate studies (1-HP sulfonation; OH-PCB1 inhibition), double mutant; settings: other: F80A/F75A; parentheses = one SD; pH 7.5; 25.0 °C
Method: (§1) C. Reaction progress was monitored via the fluorescence change associated with 1-HP sulfonation (λex = 325 nm, λem = 370 nm ([51], [52])). Initial rates were measured during conversion to product of ≤5% of the concentration-limiting substrate consumed at the reaction endpoint. Velocities were determined in triplicate. Km and kcat were obtained by (1/v^4)-weighted least-squares fitting of the averaged data in double-reciprocal space (i.e., 1/v versus 1/[S]) ([66], [67]).
(§2) Inhibition studies were performed as described above except: 1-HP was fixed (2.0 μM, 100 × Km), OH-PCBs were added (0.20–20 × Ki), and SULT1E1 was 0.20 nM (active sites). Ki was determined by least-squares fitting to a noncompetitive inhibition model ([66], [67]).

[2] = substrate: C[C@]12CC[C@@H]3c4ccc(O)cc4CC[C@H]3[C@@H]1CC[C@@H]2O; test: E2 sulfonation initial-rate assay ([3H]-E2), double mutant; settings: other: F80A/F75A; parentheses = one SD; 25.0 °C
Method: SULT1E1-catalyzed conversion of [^3H]-E2 to [^3H]-E2-sulfate was quantitated as previously described ([68]). […] C. […] The reaction mixture was diluted tenfold with an E2 (10 μM), KPO4 (50 mM), pH 7.5 solution, and brought to pH 7.0 with HCl (6.0 N). The reaction was then mixed (1:1 v/v) with neat chloroform and centrifuged (15,000g, 5.0 min). The aqueous layer was removed, chloroform was extracted twice more, and radioactivity in the aqueous layer was then determined by liquid scintillation counting. Reactions were performed in triplicate and Km and kcat were obtained by (1/v^4)-weighted least-squares fitting of the data in double-reciprocal space (i.e., 1/v versus 1/[S]) ([67]).

[3] = substrate: Oc1ccc2ccc3cccc4ccc1c2c34; test: Initial-rate studies (1-HP sulfonation; OH-PCB1 inhibition), F80A mutant; settings: other: F80A; parentheses = one SD; pH 7.5; 25.0 °C
Method: as §1, §2

[4] = substrate: Oc1ccc2ccc3cccc4ccc1c2c34; test: Initial-rate studies (1-HP sulfonation; OH-PCB1 inhibition), Y239A mutant; settings: other: Y239A; parentheses = one SD; pH 7.5; 25.0 °C
Method: as §1, §2

[5] = substrate: Oc1ccc2ccc3cccc4ccc1c2c34; test: Initial-rate studies (1-HP sulfonation; OH-PCB1 inhibition), F75A mutant; settings: other: F75A; parentheses = one SD; pH 7.5; 25.0 °C
Method: as §1, §2

B1: SULT1E1 F80A/F75A (Homo sapiens; F75A/F80A) (protein)
chain: MNSELDYYEKFEEVHGILMYKDFVKYWDNVEAFQARPDDLVIATYPKSGTTWVSEIVYMIYKEGDVEKCKEDVIANRIPALECRKENLMNGVKQLDEMNSPRIVKTHLPPELLPASFWEKDCKIIYLCRNAKDVAVSFYYFFLMVAGHPNPGSFPEFVEKFMQGQVPYGSWYKHVKSWWEKGKSPRVLFLFYEDLKEDIRKEVIKLIHFLERKPSEELVDRIIHHTSFQEMKNNPSTNYTTLPDEIMNQKLSPFMRKGITGDWKNHFTVALNEKFDKHYEQQMKESTLKFRTEI
notes: E. coli codon-optimized SULT1E1 coding region inserted into the PreScission Protease cleavage site; His/GST/MBP triple tag (N, cleaved yes); made in house; host or cells: E. coli BL21(DE3)
[1]
  Km: 28 (2.2) nM
  kcat: 0.583 s⁻¹
[2]
  Km: 4.0 (0.2) nM
  kcat: 2.5 s⁻¹

B2: SULT1E1 F80A (Homo sapiens; F80A) (protein)
chain: MNSELDYYEKFEEVHGILMYKDFVKYWDNVEAFQARPDDLVIATYPKSGTTWVSEIVYMIYKEGDVEKCKEDVIFNRIPALECRKENLMNGVKQLDEMNSPRIVKTHLPPELLPASFWEKDCKIIYLCRNAKDVAVSFYYFFLMVAGHPNPGSFPEFVEKFMQGQVPYGSWYKHVKSWWEKGKSPRVLFLFYEDLKEDIRKEVIKLIHFLERKPSEELVDRIIHHTSFQEMKNNPSTNYTTLPDEIMNQKLSPFMRKGITGDWKNHFTVALNEKFDKHYEQQMKESTLKFRTEI
notes: as for B1
[3]
  Km: 23 (1.8) nM
  kcat: 0.583 s⁻¹

B3: SULT1E1 Y239A (Homo sapiens; Y239A) (protein)
chain: MNSELDYYEKFEEVHGILMYKDFVKYWDNVEAFQARPDDLVIATYPKSGTTWVSEIVYMIYKEGDVEKCKEDVIFNRIPFLECRKENLMNGVKQLDEMNSPRIVKTHLPPELLPASFWEKDCKIIYLCRNAKDVAVSFYYFFLMVAGHPNPGSFPEFVEKFMQGQVPYGSWYKHVKSWWEKGKSPRVLFLFYEDLKEDIRKEVIKLIHFLERKPSEELVDRIIHHTSFQEMKNNPSTNATTLPDEIMNQKLSPFMRKGITGDWKNHFTVALNEKFDKHYEQQMKESTLKFRTEI
notes: as for B1
[4]
  Km: 25 (2.3) nM
  kcat: 0.633 s⁻¹

B4: SULT1E1 F75A (Homo sapiens; F75A) (protein)
chain: MNSELDYYEKFEEVHGILMYKDFVKYWDNVEAFQARPDDLVIATYPKSGTTWVSEIVYMIYKEGDVEKCKEDVIANRIPFLECRKENLMNGVKQLDEMNSPRIVKTHLPPELLPASFWEKDCKIIYLCRNAKDVAVSFYYFFLMVAGHPNPGSFPEFVEKFMQGQVPYGSWYKHVKSWWEKGKSPRVLFLFYEDLKEDIRKEVIKLIHFLERKPSEELVDRIIHHTSFQEMKNNPSTNYTTLPDEIMNQKLSPFMRKGITGDWKNHFTVALNEKFDKHYEQQMKESTLKFRTEI
notes: as for B1
[5]
  Km: 27 (1.7) nM
  kcat: 0.6 s⁻¹
